Experimental findings from article PMC9956592 (2023) are described below.

Changes are numbered by the printed parent chain.

Broadly, the koff is the rate constant with which the complex falls apart. A word on the Kd: it is the constant that tells how readily two partners part at equilibrium.

In test [1] the target is T1, Ubiquitin Specific Peptidase 11 (USP11) (human, UniProt P51784 1-963, biotin (biotinylated USP11 in the yeast display assays)). The test is described as follows: SPR. On the technique in general: SPR reads the build-up and loss of mass on a sensor chip optically.
T1 sequence (P51784 whole entry): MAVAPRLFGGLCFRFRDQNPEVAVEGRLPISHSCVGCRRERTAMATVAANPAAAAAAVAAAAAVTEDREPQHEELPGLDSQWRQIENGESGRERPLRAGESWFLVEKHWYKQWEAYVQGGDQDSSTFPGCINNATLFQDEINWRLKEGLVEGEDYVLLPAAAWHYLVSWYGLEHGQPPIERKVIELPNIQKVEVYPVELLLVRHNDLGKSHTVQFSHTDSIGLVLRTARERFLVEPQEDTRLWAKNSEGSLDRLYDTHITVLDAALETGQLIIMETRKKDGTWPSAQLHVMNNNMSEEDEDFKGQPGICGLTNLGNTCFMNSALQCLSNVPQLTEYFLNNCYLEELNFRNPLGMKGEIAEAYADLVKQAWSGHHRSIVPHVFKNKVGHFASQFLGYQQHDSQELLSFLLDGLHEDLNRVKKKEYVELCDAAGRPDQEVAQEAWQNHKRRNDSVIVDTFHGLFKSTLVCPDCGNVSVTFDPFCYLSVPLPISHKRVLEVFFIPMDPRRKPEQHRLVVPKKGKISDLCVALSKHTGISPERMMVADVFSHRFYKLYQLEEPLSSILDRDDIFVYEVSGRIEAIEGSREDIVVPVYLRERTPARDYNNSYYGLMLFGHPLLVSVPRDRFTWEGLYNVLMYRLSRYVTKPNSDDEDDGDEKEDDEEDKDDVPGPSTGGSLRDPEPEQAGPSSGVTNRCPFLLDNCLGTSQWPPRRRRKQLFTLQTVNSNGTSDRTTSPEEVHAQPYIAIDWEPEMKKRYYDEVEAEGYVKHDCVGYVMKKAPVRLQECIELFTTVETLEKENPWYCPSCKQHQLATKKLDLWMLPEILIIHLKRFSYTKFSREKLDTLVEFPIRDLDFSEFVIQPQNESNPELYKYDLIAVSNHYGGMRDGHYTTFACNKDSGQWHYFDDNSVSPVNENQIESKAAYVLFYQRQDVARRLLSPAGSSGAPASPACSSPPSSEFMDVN
For test [2], the target named is T1, Ubiquitin Specific Peptidase 11 (USP11). In words: SPR. This is another data set of the same source.

B1: scTGP USP11-C3, purified protein (scFv, V domains shown)
VH: QVQLVQSGAEVKKPGSSVKVSCKASGGTFSSYAISWVRQAPGQGLEWMGGIIPIFGTANYAQKFQGRVTITADESTSTAYMELSSLRSEDTAVYYCAREGGIGLSGWLDPWGQGTLVTVSS
VL: EIVLTQSPGTLSLSPGERATLFCRASQSVSSNLAWYQQKPGQAPRLLIYGASTRATGIPARFSGSGSGTEFTLTISSLQSEDFAVYYCQQYDDWPLTFGGGTKVDIK
Take B1: the koff in test [1] was 0.0038 s⁻¹. This molecule also had a Kd in test [2] of 160 nM.

B2: scTGP USP11-B6, purified protein (scFv, V domains shown)
VH: B1 VH with Q65L
VL: EIVMTQTPGTLCLSPGERATLSCRASQSVSNNNLAWYQQKPGQAPRLLIFGASNRATGIPDRFSGSGSGTDFTLTISSLQSEDFAVYYCQQYDSWPLTFGGGTKLEIK
For the molecule B2, the koff in test [1] was 0.00089 s⁻¹. In addition, the Kd in test [2] is 48 nM.
